Results on one variant are retold here after IntAct's records for PubMed 23274085.

B1: Sestrin-2 (Homo sapiens), P58004 (parent)
chain: MIVADSECRAELKDYLRFAPGGVGDSGPGEEQRESRARRGPRGPSAFIPVEEVLREGAESLEQHLGLEALMSSGRVDNLAVVMGLHPDYFTSFWRLHYLLLHTDGPLASSWRHYIAIMAAARHQCSYLVGSHMAEFLQTGGDPEWLLGLHRAPEKLRKLSEINKLLAHRPWLITKEHIQALLKTGEHTWSLAELIQALVLLTHCHSLSSFVFGCGILPEGDADGSPAPQAPTPPSEQSSPPSRDPLNNSGGFESARDVEALMERMQQLQESLLRDEGTSQEEMESRFELEKSESLLVTPSADILEPSPHPDMLCFVEDPTFGYEDFTRRGAQAPPTFRAQDYTWEDHGYSLIQRLYPEGGQLLDEKFQAAYSLTYNTIAMHSGVDTSVLRRAIWNYIHCVFGIRYDDYDYGEVNQLLERNLKVYIKTVACYPEKTTRRMYNLFWRHFRHSEKVHVNLLLLEARMQAALLYALRAITRYMT

The variants in the assay derive from B1. The settings on record: with keap1_human KEAP1, Q14145.
keap1_human KEAP1, Q14145, sequence (Q14145 whole entry): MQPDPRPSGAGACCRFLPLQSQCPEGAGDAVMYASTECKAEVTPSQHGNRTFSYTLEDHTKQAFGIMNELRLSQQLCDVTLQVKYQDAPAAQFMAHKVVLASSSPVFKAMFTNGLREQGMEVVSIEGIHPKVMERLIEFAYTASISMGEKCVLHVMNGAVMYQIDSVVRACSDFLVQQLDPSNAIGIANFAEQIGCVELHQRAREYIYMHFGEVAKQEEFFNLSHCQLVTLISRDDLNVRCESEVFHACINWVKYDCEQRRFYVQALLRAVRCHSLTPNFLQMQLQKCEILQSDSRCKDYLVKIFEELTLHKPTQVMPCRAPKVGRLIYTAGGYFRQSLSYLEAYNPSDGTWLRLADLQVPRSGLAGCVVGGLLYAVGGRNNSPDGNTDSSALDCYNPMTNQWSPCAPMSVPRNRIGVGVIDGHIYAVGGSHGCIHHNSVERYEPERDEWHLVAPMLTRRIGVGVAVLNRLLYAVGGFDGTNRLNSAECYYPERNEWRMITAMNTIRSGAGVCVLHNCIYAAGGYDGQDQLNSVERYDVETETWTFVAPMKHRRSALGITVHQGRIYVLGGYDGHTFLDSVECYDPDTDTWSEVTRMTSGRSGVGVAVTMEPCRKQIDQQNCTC
Take C125S: the “effect of a mutation on the interaction” value is “with no effect”.
